# Results taken from the supplement of paper PMC9233669.
# Fewer inactive variants are shown than the library holds.
# Legend:
# biotinyl-Trp-oxazolone = experiment: self-aminoacylation, catalytic enhancement (BWO) (fold over background); higher = more active; k-Seq, kA / k0A0; sequences stand for … in GGGAAUGGAUCCACAUCUACGAAUUC…UUCACUGCAGACUUGACGAAGCUG
# Outline: (§1)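 Catalytic enhancement equals the median kA over the uncatalyzed rate, the latter read from the low-activity peak of a bimodal Gaussian fit. Values of kA came from fitting each sequence's fraction reacted to a pseudo-first-order model, with 1000 bootstraps. Reacted RNA was captured with streptavidin and quantified by triplicate qPCR and Illumina sequencing after 90 minutes at room temperature with 2–1250 μM biotinyl-aminoacyl-oxazolone and 0.43 μM mutagenized RNA pools bearing a 21-nt variable region.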
# biotinyl-Val-oxazolone = experiment: self-aminoacylation, catalytic enhancement (BVO) (fold over background); higher = more active; k-Seq, kA / k0A0; sequences stand for … in GGGAAUGGAUCCACAUCUACGAAUUC…UUCACUGCAGACUUGACGAAGCUG
# Outline: as §1
# biotinyl-Ile-oxazolone = experiment: self-aminoacylation, catalytic enhancement (BIO) (fold over background); higher = more active; k-Seq, kA / k0A0; sequences stand for … in GGGAAUGGAUCCACAUCUACGAAUUC…UUCACUGCAGACUUGACGAAGCUG
# Outline: as §1
# biotinyl-Phe-oxazolone = experiment: self-aminoacylation, catalytic enhancement (BFO) (fold over background); higher = more active; k-Seq, kA / k0A0; sequences stand for … in GGGAAUGGAUCCACAUCUACGAAUUC…UUCACUGCAGACUUGACGAAGCUG
# Outline: as §1
# biotinyl-Leu-oxazolone = experiment: self-aminoacylation, catalytic enhancement (BLO) (fold over background); higher = more active; k-Seq, kA / k0A0; sequences stand for … in GGGAAUGGAUCCACAUCUACGAAUUC…UUCACUGCAGACUUGACGAAGCUG
# Outline: as §1
# biotinyl-Met-oxazolone = experiment: self-aminoacylation, catalytic enhancement (BMO) (fold over background); higher = more active; k-Seq, kA / k0A0; sequences stand for … in GGGAAUGGAUCCACAUCUACGAAUUC…UUCACUGCAGACUUGACGAAGCUG
# Outline: as §1
Sequence,self-aminoacylation (biotinyl-Trp-oxazolone),self-aminoacylation (biotinyl-Val-oxazolone),self-aminoacylation (biotinyl-Ile-oxazolone),self-aminoacylation (biotinyl-Phe-oxazolone),self-aminoacylation (biotinyl-Leu-oxazolone),self-aminoacylation (biotinyl-Met-oxazolone)
AGUCACCUAGGGCAUCGGGUG [Fam2.2 aminoacylation ribozyme variant],6.69,3.45,4.43,34.4,4.67,3.71
AUUAACCUGGUCAUCGAGUGC [Fam2.1 aminoacylation ribozyme variant],0.854,1.1,0.994,0.898,1.18,1.25
AAGUUUGUUAAUAGUCUCAAG [Fam3.1 aminoacylation ribozyme variant],1.23,1.15,1.22,1.62,1.02,1.23
AUUAACCUAGGUCAUCAGGUG [Fam2.2 aminoacylation ribozyme variant],1.43,1.48,1.24,1.4,1.47,1.35
CCAAACUUCAAGCAAUCGGUC [Fam1B.1 aminoacylation ribozyme variant],15.6,1.26,1.19,30.1,1.41,1.02
CUACUUCAAACAAACGGUCUA [Fam1A.1 aminoacylation ribozyme variant],0.537,0.742,0.751,0.773,0.696,0.665
CCACACUUCAAGCACUGGGUC [Fam1B.1 aminoacylation ribozyme variant],1.03,1.1,0.807,0.974,0.971,0.66
UUUCACCUAUGUCAUCGGGUG [Fam2.2 aminoacylation ribozyme variant],5.28,3.56,3.35,31.4,5.1,4.6
GUACUUCAAACAAUCGGUCAG [Fam1A.1 aminoacylation ribozyme variant],7.34,1.34,1.5,7.14,1.43,1.31
AGUCAACUAGGUCAUCGGGUG [Fam2.2 aminoacylation ribozyme variant],9.37,4.95,5.91,49.9,8.39,7.24
AUUACCCCGGUCAUCGAGUUA [Fam2.1 aminoacylation ribozyme variant],1.01,0.938,1.17,1.74,1.16,1.41
GUACUUCAAACAAUCGUUCUG [Fam1A.1 aminoacylation ribozyme variant],2.37,1.13,1.15,2.04,0.972,0.889
AAUCACCUAGGUCGUCGGGUG [Fam2.2 aminoacylation ribozyme variant],1.34,2.19,2.12,7.97,3.25,2.21
AAGUUUGCUAAUACACGCAAG [Fam3.1 aminoacylation ribozyme variant],0.66,0.627,0.665,1.19,0.564,0.7
CCACACCUCAAGCAAUUGGUC [Fam1B.1 aminoacylation ribozyme variant],0.738,0.754,0.937,1.05,0.873,0.699
CUACUUCAAACAAUGGGGCUG [Fam1A.1 aminoacylation ribozyme variant],0.497,1.1,1.12,0.625,0.707,0.841
CUACUUCAAACAAUUGGCCUG [Fam1A.1 aminoacylation ribozyme variant],2.03,1.33,1.57,2.28,1.34,1.11
AUUCACCUAGGACAGCGGGUG [Fam2.2 aminoacylation ribozyme variant],2,2.21,2.23,15.1,2.58,2.49
CUACUUCAAAUAAUCGCUCUG [Fam1A.1 aminoacylation ribozyme variant],1.23,0.637,0.6,2.37,0.583,0.562
CUACUUCUAACAAUCGGCCUG [Fam1A.1 aminoacylation ribozyme variant],1.05,1.2,1.09,1.01,1.31,0.997
CCUCAUUUCAAGCAAUCGGUC [Fam1B.1 aminoacylation ribozyme variant],2.75,1.05,1.11,5.96,1.08,1.07
CUACUUCAAACAAUCGGGAUG [Fam1A.1 aminoacylation ribozyme variant],4.46,1.02,0.904,5.85,1.19,0.844
AUUACCCUGGUCACCGAGUGA [Fam2.1 aminoacylation ribozyme variant],9.22,4.25,3.9,51.3,9.26,8.44
AAGUUUGCUAGUAGUCACAAG [Fam3.1 aminoacylation ribozyme variant],0.986,1.08,1.05,1.37,0.962,1.43
AAGUUUGCUAAGAGUCGGAAG [Fam3.1 aminoacylation ribozyme variant],1.4,0.923,0.879,1.35,0.64,0.956
AGUACCCUGGUCAUCGAUUGA [Fam2.1 aminoacylation ribozyme variant],1.58,0.981,1.09,1.09,1.07,0.999

Sequence,self-aminoacylation (biotinyl-Trp-oxazolone),self-aminoacylation (biotinyl-Val-oxazolone),self-aminoacylation (biotinyl-Ile-oxazolone),self-aminoacylation (biotinyl-Phe-oxazolone),self-aminoacylation (biotinyl-Leu-oxazolone),self-aminoacylation (biotinyl-Met-oxazolone)
CCACACUUCAAGCAAUCAGCC [Fam1B.1 aminoacylation ribozyme variant],2.26,1.72,1.04,3.01,1.51,0.884
CGACUUCAAACAAUCGGUCGG [Fam1A.1 aminoacylation ribozyme variant],5.43,2.08,2.47,9.34,2.68,1.99
AAGUUCCCUAAUAGUCGCAAG [Fam3.1 aminoacylation ribozyme variant],0.613,0.992,1.12,0.485,0.965,0.931
AAGUUUGCUAAUAUUCGCAAC [Fam3.1 aminoacylation ribozyme variant],2.36,1.17,1.15,0.972,1.11,1.22
AUUAACUUAGGUCAUCGGGUG [Fam2.2 aminoacylation ribozyme variant],4.85,2.59,2.79,28.7,4.73,4.59
CCACACUACAAGCAAUCGGUU [Fam1B.1 aminoacylation ribozyme variant],1.39,1.08,1.02,1.55,0.677,0.918
AUUACCCUGCUCAUCUAGUGA [Fam2.1 aminoacylation ribozyme variant],8.05,3.3,2.97,29.8,6.75,6.35
AUUACCCUAGUCAUCGUGUGA [Fam2.1 aminoacylation ribozyme variant],2.89,1.29,1.25,5.35,2.17,2.4
AGUACCCUGGUCAUCGGGUGA [Fam2.1 aminoacylation ribozyme variant],19.6,9.99,9.32,82.1,19,17.7
AUUCACCUAGGUCCUCGCGUG [Fam2.2 aminoacylation ribozyme variant],6.43,4.96,4.84,51.4,10.4,7.68
CUACUUCAAGCAAUCGGUCGG [Fam1A.1 aminoacylation ribozyme variant],4.8,1.25,1.53,5.87,1.69,1.08
AUUACCCUGGUCAUCGCCUGA [Fam2.1 aminoacylation ribozyme variant],3.69,3.15,2.72,14.2,3.64,2.48
CAACAGUUCAAGCAAUCGGUC [Fam1B.1 aminoacylation ribozyme variant],3.42,1.15,1.22,4.54,1.38,1.28
AUUACCCUGGUCAUCUAGUGC [Fam2.1 aminoacylation ribozyme variant],0.68,1,0.835,1.27,1.08,1.06
CCAUACUUCAAGCAAGCGGUC [Fam1B.1 aminoacylation ribozyme variant],0.726,1.03,1.09,0.737,0.875,0.775
AAGUUGGCUAAUCGUCGCAAG [Fam3.1 aminoacylation ribozyme variant],2.24,1.51,1.76,2.73,1.75,1.68
AUUUACCUAGGUGAUCGGGUG [Fam2.2 aminoacylation ribozyme variant],2.89,2.45,2.46,15,3.24,2.64
CCACACUUCAAGCACUCGGUC [Fam1B.1 aminoacylation ribozyme variant],0.733,0.996,0.855,0.887,0.757,0.777
AUUACCCUGGACAUCGACUGA [Fam2.1 aminoacylation ribozyme variant],0.238,0.626,0.543,0.713,0.529,0.616
CCACACUUCUAGCAACCGGUC [Fam1B.1 aminoacylation ribozyme variant],0.402,0.946,0.817,0.818,0.868,0.681
AUUCACCUAGGUCAGCGCGUG [Fam2.2 aminoacylation ribozyme variant],11,6.75,6.84,71.2,14.9,10.9
AUUGACCUAGGUCAUCGGGCG [Fam2.2 aminoacylation ribozyme variant],4.79,4.14,3.78,15,6,5.01
AUUCACCUAGGUCAUCGAGUG [Fam2.2 aminoacylation ribozyme variant],8.05,8.76,10.8,35.7,19.3,14.3
AAGUUUUCUAAUAGUCGCCAG [Fam3.1 aminoacylation ribozyme variant],1.91,1.32,1.78,2.81,1.15,1.54
AUUCUCCUAGGUCGUCGGGUG [Fam2.2 aminoacylation ribozyme variant],2.28,2.38,2.55,12.2,2.85,2.72
